Results: US20220204994A1

What was measured:
[1] = target: CD19 on Raji cells (B cell lymphoma line, Burkitt's Lymphoma) (UniProt P15391); experiment: cell-based or functional assay
[2] = tested on: B2M13-14.479 engineered meganuclease (Artificial); experiment: cell_activity; conditions: MC3 LNP repeat dose day 0 and day 3, ApoE, measured day 7; 22.62% in the comparison without repeat dosing

UniProt P15391, sequence (P15391 20-556 limits assumed): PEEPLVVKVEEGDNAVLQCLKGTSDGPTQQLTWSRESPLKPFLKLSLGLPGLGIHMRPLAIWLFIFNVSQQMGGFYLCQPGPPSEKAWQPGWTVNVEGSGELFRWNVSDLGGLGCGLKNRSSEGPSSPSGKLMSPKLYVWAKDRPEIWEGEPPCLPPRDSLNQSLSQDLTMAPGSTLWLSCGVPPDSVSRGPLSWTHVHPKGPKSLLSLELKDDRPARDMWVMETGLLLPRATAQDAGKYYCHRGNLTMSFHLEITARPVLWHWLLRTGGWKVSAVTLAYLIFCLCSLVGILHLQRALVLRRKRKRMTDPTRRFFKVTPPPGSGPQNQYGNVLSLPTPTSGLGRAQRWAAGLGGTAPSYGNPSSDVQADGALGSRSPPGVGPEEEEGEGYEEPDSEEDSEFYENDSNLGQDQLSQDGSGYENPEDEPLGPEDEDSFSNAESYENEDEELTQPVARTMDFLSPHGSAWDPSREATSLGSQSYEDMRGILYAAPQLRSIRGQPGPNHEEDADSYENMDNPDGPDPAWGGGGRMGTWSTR

| Substance | killing of CD19+ Raji cells in 16 h co-culture (CAR T cells made with AAV added 0-24 hours after LNP) [1] [%] | killing of CD19+ Raji cells in 16 h co-culture (CAR T cells made with AAV added 24-48 hours after LNP) [1] [%] | activity (% B2M knockout) [2] |
| --- | --- | --- | --- |
| anti-CD19 CAR (FMC63) expressed on human donor T cells after AAV6-7206 transduction | 99 | 94 | – |
| B2M 13-14 recognition sequence (B2M gene) | – | – | 26.4 |
